Where two headings read alike, the source gives them in different places. No end group written: not given here.
Tests used:
[1] = biological target: T1, Ssb2 (purified recombinant) (S. cerevisiae, UniProt P40150 1-613); experiment: stopped-flow fluorescence, peptide release
[2] = biological target: T1, Ssb2 (purified recombinant); experiment: stopped-flow fluorescence, peptide release; remark: listed apart in the source

T1 sequence (P40150 whole entry): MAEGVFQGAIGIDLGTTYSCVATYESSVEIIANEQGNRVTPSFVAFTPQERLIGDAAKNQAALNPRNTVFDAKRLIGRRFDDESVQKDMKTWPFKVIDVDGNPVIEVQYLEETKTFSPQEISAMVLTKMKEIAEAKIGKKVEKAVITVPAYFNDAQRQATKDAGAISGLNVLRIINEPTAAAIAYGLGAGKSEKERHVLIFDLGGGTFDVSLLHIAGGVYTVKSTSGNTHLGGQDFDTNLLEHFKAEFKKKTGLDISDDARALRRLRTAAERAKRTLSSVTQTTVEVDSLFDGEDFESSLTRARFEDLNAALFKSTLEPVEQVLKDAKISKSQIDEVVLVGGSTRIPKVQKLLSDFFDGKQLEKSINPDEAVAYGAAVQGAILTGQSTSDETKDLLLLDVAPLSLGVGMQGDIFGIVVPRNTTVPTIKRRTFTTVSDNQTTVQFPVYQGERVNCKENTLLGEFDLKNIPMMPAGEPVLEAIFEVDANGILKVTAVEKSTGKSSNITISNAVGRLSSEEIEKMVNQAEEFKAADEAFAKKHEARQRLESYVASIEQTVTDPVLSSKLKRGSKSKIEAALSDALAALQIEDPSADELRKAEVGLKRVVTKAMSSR

half-life of the complex [1]: 7.7 ± 6.7 min
half-life of the complex [2]: 3.9 ± 0.2 h
Binder: QRKLFFNLRKTKQC (not fully specified (residue 14); also: labeled with IAANS, site not given here) [IAANS labeled peptide substrate σ32-Q132-Q144-C]
